According to paper PMC3963969:

Biological target: Rad4/Cut5 (UniProt P32372)
Assay: anti-HA IP of Rad9, anti-Rad4 blot
Conditions: reference: wild-type Rad9; sites T412

Rad9 (from UniProt P26306) Rad9-T412A
binding against the reference: lost
